Reference: patent publication US20220112292A1 (ALETA BIOTHERAPEUTICS, published 2022)

T1: CLL-1 on U937 cells (human, UniProt Q5QGZ9 1-265)
T1 construct: whole, on cells; also called CLEC12A; Clec12A
T1 sequence: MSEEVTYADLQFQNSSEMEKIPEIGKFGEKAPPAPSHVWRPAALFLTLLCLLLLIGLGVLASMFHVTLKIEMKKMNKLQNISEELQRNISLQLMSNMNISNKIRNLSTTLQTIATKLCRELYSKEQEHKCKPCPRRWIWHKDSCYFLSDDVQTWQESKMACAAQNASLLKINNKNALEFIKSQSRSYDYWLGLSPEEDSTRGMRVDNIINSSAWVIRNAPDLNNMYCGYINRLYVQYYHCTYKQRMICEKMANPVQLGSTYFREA

T2: Clec12A (ABclonal, RP01018) (human, UniProt Q5QGZ9-1 75-275, limits assumed)
T2 construct: Bought recombinant protein; also called ABclonal Clec12A; Clec12A from AbClonal
T2 sequence: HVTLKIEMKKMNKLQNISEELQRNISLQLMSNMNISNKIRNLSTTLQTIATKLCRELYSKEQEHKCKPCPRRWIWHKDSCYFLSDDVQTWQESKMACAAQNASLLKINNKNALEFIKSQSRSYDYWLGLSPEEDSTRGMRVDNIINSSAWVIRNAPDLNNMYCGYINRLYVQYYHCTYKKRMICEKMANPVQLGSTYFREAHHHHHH

T3: Clec12A-His (Sino Biological, 11896-H07H) (human, UniProt Q5QGZ9 65-265)
T3 construct: Bought soluble protein; also called soluble CLEC12a-His; Sino Biological Clec12A
T3 chain: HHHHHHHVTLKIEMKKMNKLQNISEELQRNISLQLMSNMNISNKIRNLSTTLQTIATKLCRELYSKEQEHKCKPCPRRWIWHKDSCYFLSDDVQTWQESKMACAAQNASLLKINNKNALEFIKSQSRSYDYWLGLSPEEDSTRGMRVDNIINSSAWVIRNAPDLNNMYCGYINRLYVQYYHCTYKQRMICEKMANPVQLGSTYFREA

B1: VHH clone 2H3 (VHH)
VHH: QVQLQESGGGLVQAGGSLRLSCVASGSIRSINVMGWYRQAPGKQRELVAACASDGNTYYADSVKGRFTISRDNAEKTVYLQMNNLKPDDTAVYYCDANSRGNYYSGQGTQVTVSS
notes: Includes myc and His tags; also called 2H3 VHH-Myc-His; VHH 2H3
B2: 1C6 (VHH)
VHH: QVQLQESGGALVQAGGSLRLSCAASGLTFSNYAMGWFRQAPGKEREFVAAINWSGGTTDYATSVKGRFTISRDNAKNTVYLQLNSLKPEDTAVYYCAASYRLRITVVVTPDEYHYWGQGTLVTVSS
notes: also called VHH clone 1C6
B3: VHH clone 2C2 (VHH)
VHH: QVQLQQSGGGLVQAGGSLTLSCAATGRTIDNGAMAWFRQAPGKQRELVAAINWSGGATFYTDSVKYRFTISRDNVRHTLDLQMTSLKPEDTTIYFCASRRGVDLRRNSYEYDYWGRGTLVTVSS
notes: Includes myc and His tags

Columns and labels:
[1] = target: T1, CLL-1 on U937 cells; assay: flow cytometry on U937 cells, % binding against ng/ml, detected with a-His-PE; EC50 of the fitted curve
Protocol: (§1) U937 cell binding by VHH clones was assessed using varying doses to determine EC50s. Briefly, the method included: VHH clones (3 ug/ml as starting conc./test, with 3× serial dilutions) in FACS buffer were added to Fc blocked U937 or 293T-CLL1 cells (2.5×10\hat{ }5), the mixtures were incubated for 30 min at 4° C., then washed twice with FACS buffer by spinning at 500G for 2 min; anti-His-PE was added to cells, the mixture was incubated for 30 min at 4° C. and washed twice with FACS buffer by spinning at 500G for 2 min; 1% PFA (Paraformaldehyde) in PBS was added to cell pellet to fix the cells, followed by FACS analysis. VHH clones tested: 1B5: stock=1.6 mg/ml; 1H1: stock=1.9 mg/ml; 1G6: stock=1.1 mg/ml; 2F3: stock=1.45 mg/ml; 2F5: stock=0.5 mg/ml; 2H3: stock=2 mg/ml.

[2] = target: T2, Clec12A (ABclonal, RP01018); assay: ELISA: coated with clec12a, then 2H3, anti-myc, HRP-anti-mIgG; OD405
Protocol: (§2) The ability of VHH clones to recognize commercially available recombinant Clec12a proteins was tested by ELISA. […] The plate was blocked with 200 μl/well 0.3% non-fat milk in Tris buffered saline (TBS) for 1 hr at room temperature (RT). Then, the plates were washed 3× with wash buffer (1×TBST: 0.1 M Tris, 0.5 M NaCl, 0.05% Tween 20). Next, 100 μl of the 2H3 VHH-Myc-His (SEQ ID NO: 15, purified by ProSci), was added starting at 5 μg/ml with 3 fold dilutions, and incubated for 1 h at RT. The plate was washed 3× with wash buffer and 100 μl of 1 ug/ml anti-Myc antibody (NOVUS/Fisher, NBP2-37822) was added per well. The plate was incubated for 1 h at RT and then washed 3× with wash buffer. Following the wash step, 100 μl of a 1:2000 dilution of HRP-anti-mIgG (Jackson ImmunoResearch, 115-035-062) was added per well and incubated at RT in the dark for 1 hr. […] This experiment was repeated twice.

[3] = target: T1, CLL-1 on U937 cells; assay: flow cytometry on U937 cells, 3x serial dilutions from 3 ug/ml, anti-His-PE
Protocol: as §1

[4] = target: T3, Clec12A-His (Sino Biological, …); assay: ELISA, upper graph (first experiment): coated with clec12a, then 2H3, anti-myc, HRP-anti-mIgG; OD405
Protocol: as §2

[5] = target: T1, CLL-1 on U937 cells; assay: flow cytometry on U937 cells, VHH in 3-fold dilutions, detected with a-His-PE; percent of cells positive
Protocol: as §1

[6] = target: T1, CLL-1 on U937 cells; assay: flow cytometry on U937 cells, clone lysate, anti-cMyc-PE (Table 3 summary)
[7] = target: T1, CLL-1 on U937 cells; assay: flow cytometry on U937 cells, VHH at 3 ug/ml, detected with a-His-PE; a-His-PE alone 1.1% and 5,576.5, unstained 0.6% and 5,793.5
Protocol: U937 cell binding by VHH clones was assessed. Briefly, the method included: U937 cells (2.5×10\hat{ }5) were Fc blocked (human Fc block, BD Cat. #BDB564220) for 10 min at room temperature, then washed once with FACS buffer (PBS+1% BSA+0.1% Sodium Azide) by spinning at 500G for 2 min; VHH clones (3 μg/ml as final conc) in FACS buffer were added to the cell pellets and incubated for 30 min at 4° C., then washed twice with FACS buffer by spinning at 500G for 2 min; anti-His-PE (R&D Systems, Cat. #IC050P) was added to cells; the mixture was incubated for 30 min at 4° C. and washed twice with FACS buffer by spinning at 500G for 2 min; 1% PFA (Paraformaldehyde) in PBS was added to cell pellet to fix the cells, followed by FACS analysis. VHH clones tested: 1B5: stock=1.6 mg/ml; 1H1: stock=1.9 mg/ml; 1G6: stock=1.1 mg/ml; 2F3: stock=1.45 mg/ml; 2F5: stock=0.5 mg/ml; 2H3: stock=2 mg/ml. As shown in FIGS. 2A-2C, binding of clones 1H1, 1G6, 2F5 and 2H3 to U937 cells was detected with anti-His-PE; very little binding of clones 1B5 and 2F3 to U937 cells could be detected by anti-His-PE.

[8] = target: T3, Clec12A-His (Sino Biological, …); assay: ELISA, lower graph (second experiment): coated with clec12a, then 2H3, anti-myc, HRP-anti-mIgG; OD405
Protocol: as §2

[9] = target: T1, CLL-1 on U937 cells; assay: flow cytometry on U937 cells, a-cMyc then a-msIgG-PE
Protocol: (§3) Additional VHH clones were assessed for binding to U937. […] Clones tested: 1A10: stock=0.9 mg/ml; 1B1: stock=0.9 mg/ml; […]: stock=1.5 mg/ml; 2C8: stock=0.9 mg/ml; 1D2: stock=0.06 mg/ml. Previous clone as control 2F5: stock=0.5 mg/ml.

[10] = target: T1, CLL-1 on U937 cells; assay: flow cytometry on U937 cells, clone at 3ug/ml, a-Myc then a-mIgG-PE; no clone 0.6% and 64,740.2, unstained 0.0% and 4,885.0
Protocol: as §3

[11] = target: T3, Clec12A-His (Sino Biological, …); assay: competition ELISA on coated CLEC12a-His, biotinylated VHH against unlabelled VHH
Protocol: ELISAs were used to determine if the VHH clones recognized distinct or similar epitopes. […] The plate was blocked with 0.3% nonfat milk in TBS (200 ul/well) for 1 hr at RT. The plates were washed 3× with 1×TBST (0.1 M Tris, 0.5 M NaCl and 0.05% Tween-20). The test anti-CLEC12a VHHs were added at 10 ug/ml horizontally across the plate, 100 ul per well and incubated for 1 h. Without washing, the test anti-CLEC12a biotinylated VHHs were added at 0.2 ug/ml vertically down the plate, 100 ul per well and incubate for 1 h. After being washed 3× with 1×TBST, HRP-conjugated streptavidin (Pierce #21130) at 1:2000 (100 ul/well) was added, followed by incubation at RT in the dark for 1 hr. For detection, 1-Step Ultra TMB-ELISA reagent (Thermo Fisher #34028) was added at 100 ul per well and read at 450 nm. […] The 1H1 VHH was distinct from these, and 2C2 was intermediate. Results are depicted in FIGS. 7A-7D.

Binder	EC50 [1]	binding result [2]	EC50 [3]	EC50 [4]	% binding at 1.4 ng/ml [5]	% binding at 4.1 ng/ml [5]	% binding at 12.3 ng/ml [5]	% binding at 37.0 ng/ml [5]	% binding at 111.1 ng/ml [5]	% binding at 333.3 ng/ml [5]	% binding at 1000 ng/ml [5]	% binding at 3000 ng/ml [5]	% FACS positive [6]	% of This Plot (R3 PE+) [7]	Mean FL2-A (R3 gate) [7]	EC50 [8]	binding result [9]	% of This Plot (R3) [10]	Mean FL2-A (R3 gate) [10]	binding result [11]
B1	0.00547 µg/mL	no binding (tested: about 5000 ng/ml)	0.35 nM	0.0661 µg/mL	6.2%	33.5%	70.5%	89%	89.4%	89.9%	90.3%	88.7%	94.3%	93.8%	8130	0.0625 µg/mL				
B2																	no binding (tested: 3ug/ml)	6%	12300	
B3													77.2%							binds
